Measured values reported in publication PMC5059666 (2016).

What was measured:
[1] = molecular target: feline IgM-Fc pentamer (FLAG-tagged feline IgM-Fc with Myc-tagged feline IgJ); test: immunoblotting (non-reducing conditions) of IgM-Fc bound AIM, quantified using NIH ImageJ; conditions: supernatant after a co-culture of feline Fc-expressing HEK293T cells and cells expressing wild-type, chimeric, or mutant feline AIM; parent: est. 1; read off a plot
[2] = molecular target: feline IgM-Fc pentamer (FLAG-tagged feline IgM-Fc with Myc-tagged feline IgJ) (cat); test: SPR; Biacore T100, 25 °C; IgM-Fc pentamers amine-coupled on a CM5 chip (1000 RU), BSA reference cell; AIM as analyte 50 nM to 5 μM in D-PBS(-) pH 7.4, single-cycle kinetics, heterogeneous ligand model
[3] = molecular target: mouse IgM-Fc pentamer (FLAG-IgM-Fc with IgJ-Myc) (mouse) (UniProt P01872); test: as above
[4] = molecular target: T1, mouse IgM-Fc pentamer (FLAG-IgM-Fc with IgJ-Myc) (mouse, UniProt P01872 1-454; P01592 22-159); test: SPR
T1 chain 1: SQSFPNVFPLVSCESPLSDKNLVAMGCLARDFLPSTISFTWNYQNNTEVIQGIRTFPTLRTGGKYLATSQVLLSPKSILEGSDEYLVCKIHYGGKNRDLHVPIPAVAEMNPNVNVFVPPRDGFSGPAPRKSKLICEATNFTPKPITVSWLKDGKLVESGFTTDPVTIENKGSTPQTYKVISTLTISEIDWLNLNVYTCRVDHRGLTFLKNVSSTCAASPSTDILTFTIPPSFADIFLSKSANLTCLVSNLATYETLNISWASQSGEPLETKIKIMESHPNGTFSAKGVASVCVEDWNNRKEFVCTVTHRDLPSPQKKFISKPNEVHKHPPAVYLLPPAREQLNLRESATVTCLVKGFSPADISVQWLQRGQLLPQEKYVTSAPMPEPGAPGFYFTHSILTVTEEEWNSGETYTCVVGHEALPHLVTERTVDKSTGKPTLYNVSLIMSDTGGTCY
T1 chain 2: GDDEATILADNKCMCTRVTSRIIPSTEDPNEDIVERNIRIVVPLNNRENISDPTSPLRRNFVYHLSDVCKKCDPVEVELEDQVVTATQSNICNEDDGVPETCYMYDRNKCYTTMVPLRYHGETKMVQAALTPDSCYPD

[5] = molecular target: T1, mouse IgM-Fc pentamer (FLAG-IgM-Fc with …); test: SPR

recombinant feline AIM (3-SRCR) (from UniProt A0A1E1GEY0) R299K; R300I; R338K
ratio to parent [1]: 0.58

recombinant feline AIM (4-SRCR) (from UniProt A0A1E1GEY0 20-355) (natural protein)
koff [2]: 4.38e-05 s⁻¹ | kon [2]: 9.52 M⁻¹ s⁻¹

B1: recombinant mouse AIM (natural protein)
chain: ESPTKVQLVGGAHRCEGRVEVEHNGQWGTVCDDGWDRRDVAVVCRELNCGAVIQTPRGASYQPPASEQRVLIQGVDCNGTEDTLAQCELNYDVFDCSHEEDAGAQCENPDSDLLFIPEDVRLVDGPGHCQGRVEVLHQSQWSTVCKAGWNLQVSKVVCRQLGCGRALLTYGSCNKNTQGKGPIWMGKMSCSGQEANLRSCLLSRLENNCTHGEDTWMECEDPFELKLVGGDTPCSGRLEVLHKGSWGSVCDDNWGEKEDQVVCKQLGCGKSLHPSPKTRKIYGPGAGRIWLDDVNCSGKEQSLEFCRHRLWGYHDCTHKEDVEVICTDFDV
Kd [3]: 5820 nM | koff [3]: 0.0223 s⁻¹ | kon [3]: 3830 M⁻¹ s⁻¹

B2: recombinant feline AIM (3-SRCR) (natural protein)
chain: SFSRVRLVGGDHRCEGRVELQQDDEWVTVCDDYWNMDSVAVLCRELGCGAARKTMSGTVYGPVTPKDQKVFIHLFRCNGIEESLSQCEREDAIGCSHVEDAGAVCEPIYTGPGILGPESVRLADGPGRCQGRVEVKFRGEWSSVCQAGWSFAAAKVVCRQLGCGRATLTRRGCNKATQGQGAIWQRKASCSGQEVSLQDCLSEVWEHNCTHNEDVWVECEDPFALKLVGGRSHCEGRLEVLHKGEWGSVCDDGWGQDADRVVCRQLGCGQPLSPPVKVRRRFGPGVGRIWLDDVKCSGKEPSLEQCLHRSWGYHNCNHREDVAVVCEEQQSGLPDA
Kd [4]: 14.6 nM | koff [5]: 0.000106 s⁻¹ | Kd [2]: 5.97 nM | koff [2]: 5.65e-05 s⁻¹ | kon [2]: 9460 M⁻¹ s⁻¹
